From patent publication US20090123479A1 (published 2009)

T1: recombinant human IL-23 (human, UniProt Q9NPF7 20-189; P29460 23-328)
T1 construct: also called hIL-23
T1 sequence 1: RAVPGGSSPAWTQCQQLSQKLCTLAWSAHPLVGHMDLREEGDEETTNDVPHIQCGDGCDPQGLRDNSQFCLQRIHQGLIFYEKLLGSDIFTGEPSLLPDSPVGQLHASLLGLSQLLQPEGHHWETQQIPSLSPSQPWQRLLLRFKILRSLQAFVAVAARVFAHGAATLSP
T1 sequence 2: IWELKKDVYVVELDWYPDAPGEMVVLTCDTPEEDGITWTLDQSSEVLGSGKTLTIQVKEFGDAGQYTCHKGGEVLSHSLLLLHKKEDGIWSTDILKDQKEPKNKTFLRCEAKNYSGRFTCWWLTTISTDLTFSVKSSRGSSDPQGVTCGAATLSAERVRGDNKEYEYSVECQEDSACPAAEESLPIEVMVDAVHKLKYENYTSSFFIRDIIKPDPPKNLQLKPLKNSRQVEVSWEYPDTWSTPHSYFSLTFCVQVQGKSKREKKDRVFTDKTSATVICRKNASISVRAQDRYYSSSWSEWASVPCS


biological target: T1, recombinant human IL-23; assay: SPR (Biacore T100), tissue culture supernatant antibody captured on anti-human IgG, IL-23 analyte
Description: Biacore analysis was carried out using a capture surface on a CM5 chip. Anti-human IgG (BR-1008-39) was used as the capturing agent. Anti-human IgG was coupled to a CM5 biosensor chip by primary amine coupling. Humanized antibody was captured on this immobilised surface and defined concentrations of IL-23 were passed over this captured surface. An injection of buffer over the captured antibody surface was used for double-referencing. […] T100 Biacore machine was used to generate the data; all runs were carried out at 25° C. using HBS EP. Data was analysed using the software inherent to the machine and fitted to the 1:1 model of binding. Tables 7 and 8 detail the IL-23 binding analysis carried out on the 8C92H6.HC1LC1 chimera and selected humanized variants in two separate experiments. […] The data shown for the humanized variants is representative of a number of runs. The chimeric mAb (8C9H6.HC1LC1) was only run once in each experiment, so data shown for this mAb is from that one run.

| Binder | Kd [nM] | koff [s⁻¹] | kon [M⁻¹ s⁻¹] |
| --- | --- | --- | --- |
| A3M4 (antibody, human IgG1, kappa, V domains shown, Full length chains) VH: QVQLVQSGAEVKKPGSSVKVSCKASGYTFTSYGITWVRQAPGQGLEWMGENYPRSGNTYYNEKFKGRVTITADKSTSTAYMELSSLRSEDTAVYYCARSEFISTVVAPYYYALDYWGQGTLVTVSS VL: DIVMTQSPDSLAVSLGERATINCKASKKVTIFGSTSALHWYQQKPGQPPKLIYNGAKPESGVPDRFSGSGSGTDFTLTISSLQAEDVAVYYCLQNKEVPYTFGGGTKVEIKR | 0.0775 | 0.000106 | 1.36e+06 |
| A12.5M3 (antibody, V domains shown) VH: QVQLVQSGAEVKKPGSSVKVSCKASGYTFASYGITWVRQAPGQGLEWMGENYPRSGNTYYNEKFKGRVTITADKSTSTAYMELSSLRSEDTAVYYCARVEFISTVVAPYYYALDYWGQGTLVTVSS VL: DIVMTQSPDSLAVSLGERATINCKASKKVTIFGSTSALHWYQQKPGQPPKLIYNGAKLESGVPDRFSGSGSGTDFTLTISSLQAEDVAVYYCLQNKEVPYTFGGGTKVEIK | 0.0637 | 0.000172 | 2.7e+06 |
| A10.5M3 (antibody, V domains shown) VH: QVQLVQSGAEVKKPGSSVKVSCKASGYTFASYGITWVRQAPGQGLEWMGENYPRSGNTYYNEKFKGRVTITADKSTSTAYMELSSLRSEDTAVYYCARSEFISTVVAPYYYALDYWGQGTLVTVSS VL: DIVMTQSPDSLAVSLGERATINCKASKKVTIFGSTSALHWYQQKPGQPPKLIYNGAKLESGVPDRFSGSGSGTDFTLTISSLQAEDVAVYYCLQNKEVPYTFGGGTKVEIK | 0.0962 | 0.000115 | 1.19e+06 |
| A7M4 (antibody, human IgG1, kappa, V domains shown, Full length chains) VH: QVQLVQSGAEVKKPGSSVKVSCKASGYTFTSYGITWVRQAPGQGLEWMGEDYPRSGNTYYNEKFKGRVTITADKSTSTAYMELSSLRSEDTAVYYCARSEFISTVVAPYYYALDYWGQGTLVTVSS VL: DIVMTQSPDSLAVSLGERATINCKASKKVTIFGSTSALHWYQQKPGQPPKLIYNGAKPESGVPDRFSGSGSGTDFTLTISSLQAEDVAVYYCLQNKEVPYTFGGGTKVEIKR | 0.0918 | 0.000123 | 1.34e+06 |
| A10M3 (antibody, human IgG1, kappa, V domains shown, Full length chains) VH: QVQLVQSGAEVKKPGSSVKVSCKASGYTFASYGITWVRQAPGQGLEWMGENYPRSGNTYYNEKFKGRVTITADKSTSTAYMELSSLRSEDTAMYYCARSEFISTVVAPYYYALDYWGQGTLVTVSS VL: DIVMTQSPDSLAVSLGERATINCKASKKVTIFGSTSALHWYQQKPGQPPKLIYNGAKLESGVPDRFSGSGSGTDFTLTISSLQAEDVAVYYCLQNKEVPYTFGGGTKVEIKR | 0.106 | 0.000117 | 1.11e+06 |
| A3M5 (antibody, human IgG1, kappa, V domains shown, Full length chains) VH: QVQLVQSGAEVKKPGSSVKVSCKASGYTFTSYGITWVRQAPGQGLEWMGENYPRSGNTYYNEKFKGRVTITADKSTSTAYMELSSLRSEDTAVYYCARSEFISTVVAPYYYALDYWGQGTLVTVSS VL: DIVMTQSPDSLAVSLGERATINCKASKKVTIFGSISALHWYQQKPGQPPKLIYDGAKLESGVPDRFSGSGSGTDFTLTISSLQAEDVAVYYCLQNKEVPYTFGGGTKVEIKR | 26.4 | 0.0012 | 45500 |
| A3M6 (antibody, human IgG1, kappa, V domains shown, Full length chains) VH: QVQLVQSGAEVKKPGSSVKVSCKASGYTFTSYGITWVRQAPGQGLEWMGENYPRSGNTYYNEKFKGRVTITADKSTSTAYMELSSLRSEDTAVYYCARSEFISTVVAPYYYALDYWGQGTLVTVSS VL: DIVMTQSPDSLAVSLGERATINCKASKKVTIFGSISALHWYQQKPGQPPKLIYQGAKLESGVPDRFSGSGSGTDFTLTISSLQAEDVAVYYCLQNKEVPYTFGGGTKVEIKR | 1.23 | 0.0011 | 896000 |

The remaining lines, values ahead:

| Kd [nM] | koff [s⁻¹] | kon [M⁻¹ s⁻¹] | Binder |
| --- | --- | --- | --- |
| 0.0465 | 0.000149 | 3.22e+06 | A6M4 (antibody, human IgG1, kappa, V domains shown, Full length chains) VH: QVQLVQSGAEVKKPGSSVKVSCKASGYTFTSYGITWVRQAPGQGLEWMGENYPRSGNTYYNEKFKGRVTITADKSTSTAYMELSSLRSEDTAVYYCARVEFISTVVAPYYYALDYWGQGTLVTVSS VL: DIVMTQSPDSLAVSLGERATINCKASKKVTIFGSTSALHWYQQKPGQPPKLIYNGAKPESGVPDRFSGSGSGTDFTLTISSLQAEDVAVYYCLQNKEVPYTFGGGTKVEIKR |
| 0.0456 | 0.000129 | 2.83e+06 | A9M4 (antibody, V domains shown) VH: QVQLVQSGAEVKKPGSSVKVSCKASGYTFTSYGITWVRQAPGQGLEWMGEDYPRSGNTYYNEKFKGRVTITADKSTSTAYMELSSLRSEDTAVYYCARVEFISTVVAPYYYALDYWGQGTLVTVSS VL: DIVMTQSPDSLAVSLGERATINCKASKKVTIFGSTSALHWYQQKPGQPPKLIYNGAKPESGVPDRFSGSGSGTDFTLTISSLQAEDVAVYYCLQNKEVPYTFGGGTKVEIK |
| 0.0671 | 9.57e-05 | 1.43e+06 | A11M3 (antibody, V domains shown) VH: QVQLVQSGAEVKKPGSSVKVSCKASGYTFASYGITWVRQAPGQGLEWMGENYPRSGNTYYNEKFKGRVTITADKSTSTAYMELSSLRSEDTAMYYCARAEFISTVVAPYYYALDYWGQGTLVTVSS VL: DIVMTQSPDSLAVSLGERATINCKASKKVTIFGSTSALHWYQQKPGQPPKLIYNGAKLESGVPDRFSGSGSGTDFTLTISSLQAEDVAVYYCLQNKEVPYTFGGGTKVEIK |
| 0.053 | 0.000101 | 1.91e+06 | A5M4 (antibody, human IgG1, kappa, V domains shown, Full length chains) VH: QVQLVQSGAEVKKPGSSVKVSCKASGYTFTSYGITWVRQAPGQGLEWMGENYPRSGNTYYNEKFKGRVTITADKSTSTAYMELSSLRSEDTAVYYCARAEFISTVVAPYYYALDYWGQGTLVTVSS VL: DIVMTQSPDSLAVSLGERATINCKASKKVTIFGSTSALHWYQQKPGQPPKLIYNGAKPESGVPDRFSGSGSGTDFTLTISSLQAEDVAVYYCLQNKEVPYTFGGGTKVEIKR |
| 0.0462 | 9.58e-05 | 2.08e+06 | A8M4 (antibody, V domains shown) VH: QVQLVQSGAEVKKPGSSVKVSCKASGYTFTSYGITWVRQAPGQGLEWMGEDYPRSGNTYYNEKFKGRVTITADKSTSTAYMELSSLRSEDTAVYYCARAEFISTVVAPYYYALDYWGQGTLVTVSS VL: DIVMTQSPDSLAVSLGERATINCKASKKVTIFGSTSALHWYQQKPGQPPKLIYNGAKPESGVPDRFSGSGSGTDFTLTISSLQAEDVAVYYCLQNKEVPYTFGGGTKVEIK |
| 0.0665 | 9.62e-05 | 1.45e+06 | A11.5M4 (antibody, V domains shown) VH: QVQLVQSGAEVKKPGSSVKVSCKASGYTFASYGITWVRQAPGQGLEWMGENYPRSGNTYYNEKFKGRVTITADKSTSTAYMELSSLRSEDTAVYYCARAEFISTVVAPYYYALDYWGQGTLVTVSS VL: DIVMTQSPDSLAVSLGERATINCKASKKVTIFGSTSALHWYQQKPGQPPKLIYNGAKPESGVPDRFSGSGSGTDFTLTISSLQAEDVAVYYCLQNKEVPYTFGGGTKVEIK |
| 0.0606 | 9.38e-05 | 1.55e+06 | A11.5M3 (antibody, V domains shown) VH: QVQLVQSGAEVKKPGSSVKVSCKASGYTFASYGITWVRQAPGQGLEWMGENYPRSGNTYYNEKFKGRVTITADKSTSTAYMELSSLRSEDTAVYYCARAEFISTVVAPYYYALDYWGQGTLVTVSS VL: DIVMTQSPDSLAVSLGERATINCKASKKVTIFGSTSALHWYQQKPGQPPKLIYNGAKLESGVPDRFSGSGSGTDFTLTISSLQAEDVAVYYCLQNKEVPYTFGGGTKVEIK |
| 0.0416 | 8.64e-05 | 2.08e+06 | A10.5M4 (antibody, V domains shown) VH: QVQLVQSGAEVKKPGSSVKVSCKASGYTFASYGITWVRQAPGQGLEWMGENYPRSGNTYYNEKFKGRVTITADKSTSTAYMELSSLRSEDTAVYYCARSEFISTVVAPYYYALDYWGQGTLVTVSS VL: DIVMTQSPDSLAVSLGERATINCKASKKVTIFGSTSALHWYQQKPGQPPKLIYNGAKPESGVPDRFSGSGSGTDFTLTISSLQAEDVAVYYCLQNKEVPYTFGGGTKVEIK |
| 0.0733 | 0.000107 | 1.46e+06 | A10M4 (antibody, human IgG1, kappa, V domains shown, Full length chains) VH: QVQLVQSGAEVKKPGSSVKVSCKASGYTFASYGITWVRQAPGQGLEWMGENYPRSGNTYYNEKFKGRVTITADKSTSTAYMELSSLRSEDTAMYYCARSEFISTVVAPYYYALDYWGQGTLVTVSS VL: DIVMTQSPDSLAVSLGERATINCKASKKVTIFGSTSALHWYQQKPGQPPKLIYNGAKPESGVPDRFSGSGSGTDFTLTISSLQAEDVAVYYCLQNKEVPYTFGGGTKVEIKR |
| 0.0444 | 9.18e-05 | 2.07e+06 | A11M4 (antibody, V domains shown) VH: QVQLVQSGAEVKKPGSSVKVSCKASGYTFASYGITWVRQAPGQGLEWMGENYPRSGNTYYNEKFKGRVTITADKSTSTAYMELSSLRSEDTAMYYCARAEFISTVVAPYYYALDYWGQGTLVTVSS VL: DIVMTQSPDSLAVSLGERATINCKASKKVTIFGSTSALHWYQQKPGQPPKLIYNGAKPESGVPDRFSGSGSGTDFTLTISSLQAEDVAVYYCLQNKEVPYTFGGGTKVEIK |
